Patent US20240368263A1 (PROMETHEUS BIOSCIENCES, published 2024)

Tests used:
[1] = target: T1, human TL1A (endogenous, human whole blood assay) (human, UniProt O95150 1-251, limits assumed); experiment: cell-based or functional assay
T1 sequence (looked up): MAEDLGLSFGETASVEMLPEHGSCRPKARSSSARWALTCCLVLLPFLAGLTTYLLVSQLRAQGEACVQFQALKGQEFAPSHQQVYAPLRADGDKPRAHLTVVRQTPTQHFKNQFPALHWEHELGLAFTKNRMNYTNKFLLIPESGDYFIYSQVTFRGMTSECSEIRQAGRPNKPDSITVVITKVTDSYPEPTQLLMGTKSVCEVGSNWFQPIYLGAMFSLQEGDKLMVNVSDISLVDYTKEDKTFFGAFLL

[2] = target: LIGHT/TNFSF14 (R&D Systems, cat. no. 664-LI/CF) (UniProt O43557 74-240); experiment: ELISA, antigen coated at 1 µg/ml, Fab titrated
[3] = target: TRAIL/TNFSF10 (R&D Systems, cat. no. 375-TL/CF) (UniProt P50591 114-281); experiment: ELISA, antigen coated at 1 µg/ml, Fab titrated
[4] = target: T2, Fas/TNFSF6 (R&D Systems, cat. no. 126-FL/CF) (UniProt P48023 134-281); experiment: ELISA, antigen coated at 1 µg/ml, Fab titrated
T2 sequence (looked up): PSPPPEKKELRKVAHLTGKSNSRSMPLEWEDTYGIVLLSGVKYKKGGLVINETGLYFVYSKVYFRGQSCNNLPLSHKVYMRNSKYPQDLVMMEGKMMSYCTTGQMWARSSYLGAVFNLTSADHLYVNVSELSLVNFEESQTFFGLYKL

[5] = target: T3, membrane-associated human TL1A on transfected HEK293 cells (human, UniProt O95150 1-251); experiment: flow cytometry, HEK293 cells transfected with human TL1A
T3 construct: whole, on cells
T3 sequence (looked up): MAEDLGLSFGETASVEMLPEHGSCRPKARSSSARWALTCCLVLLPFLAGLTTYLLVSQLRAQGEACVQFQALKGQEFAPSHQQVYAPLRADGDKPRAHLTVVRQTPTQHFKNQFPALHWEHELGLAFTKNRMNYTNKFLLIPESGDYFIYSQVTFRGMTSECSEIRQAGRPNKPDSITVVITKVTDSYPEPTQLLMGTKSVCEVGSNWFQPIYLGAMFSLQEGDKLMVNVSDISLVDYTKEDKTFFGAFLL
Protocol: All the Fab variants were tested for binding to membrane-associated human TL1A. For these studies a HEK293 cell line that had been transfected with human TL1A was used. The 293 cells expressing membrane bound human TL1A were maintained in DMEM containing L-glutamine, glucose, sodium pyruvate, and phenol red (ThermoFisher cat #11995-065) plus 10% fetal bovine serum, 1X penicillin-streptomycin (Fisher cat #15140122) and 2 μg/ml puromycin (Gibco cat #A11138-03) in a 37° C. incubator with 5% CO2. Three days prior to the assay, a T-75 flask was seeded with 3×10⁶ cells so that the flask was 90-95% confluent on the day of the assay. The media was aspirated and the cell monolayer was gently washed with 5 ml PBS. Adherent cells were removed by repeatedly pipetting 10 ml ice cold 1% BSA/PBS against the monolayer. The cells were counted and 5×10⁵ were aliquoted for each sample to be analyzed. The cells were collected by centrifuging at 300× g at 4° C. for 5 minutes and the wash was discarded. The cells were resuspended in 100 μl Fab or IgG diluted in 1% BSA/PBS and placed on ice for 30 min. Next, the cells were washed with 1 ml 1% BSA/PBS and collected by centrifuging at 300× g at 4° C. for 5 min. The wash was discarded and 100 μl secondary goat F (ab′) 2 anti-human kappa FITC (Southern Biotech cat #2062-02) or goat F (ab′) 2 anti-human IgG PE (Southern Biotech cat #2043-09) conjugate, diluted 1:200 in BSA/PBS was added. Cells were placed on ice for 30 min. Finally, the cells were washed with 1 ml BSA/PBS, collected by centrifuging at 300× g at 4° C. for 5 min. The wash was removed and the cells were resuspended in 500 μl 1% BSA/PBS. One drop of Sytox AADvanced ReadyFlow Reagent (ThermoFisher cat #R37173) was added per sample and the samples were analyzed on the Attune NXT Flow Cytometer (ThermoFisher).

[6] = target: T4, human TL1A (Fitzgerald, Prod. #30R-AT070) (human, UniProt O95150 72-251, limits assumed, biotinylated with EZ-Link Sulfo-NHS-LC-Biotin where used as soluble antigen); experiment: two ELISA formats: Fab on coated TL1A; captured Fab with biotinylated TL1A
T4 construct: also called TNFSF15; biotinylated human TL1A
T4 sequence (looked up): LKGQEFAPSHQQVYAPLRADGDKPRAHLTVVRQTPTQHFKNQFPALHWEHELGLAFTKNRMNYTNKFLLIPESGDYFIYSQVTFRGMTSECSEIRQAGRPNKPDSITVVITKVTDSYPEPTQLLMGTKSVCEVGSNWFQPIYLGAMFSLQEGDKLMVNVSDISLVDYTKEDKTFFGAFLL
Protocol: Fabs with the CDRs shown in Tables 19 to 22 were tested for binding to human TL1A in multiple formats. Next, uniform (saturating) quantities of soluble Fab variants were captured on the surface of an ELISA plate and soluble, biotinylated human TL1A was titrated as shown in FIGS. 10 to 13.

Chain of LIGHT/TNFSF14 (R&D Systems, cat. no. 664-LI/CF) (O43557 74-240 limits assumed): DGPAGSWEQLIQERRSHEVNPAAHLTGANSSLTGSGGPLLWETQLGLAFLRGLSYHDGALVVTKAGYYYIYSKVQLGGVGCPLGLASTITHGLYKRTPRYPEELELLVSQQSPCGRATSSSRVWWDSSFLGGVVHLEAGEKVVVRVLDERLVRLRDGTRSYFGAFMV
Chain of TRAIL/TNFSF10 (R&D Systems, cat. no. 375-TL/CF) (P50591 114-281 limits assumed): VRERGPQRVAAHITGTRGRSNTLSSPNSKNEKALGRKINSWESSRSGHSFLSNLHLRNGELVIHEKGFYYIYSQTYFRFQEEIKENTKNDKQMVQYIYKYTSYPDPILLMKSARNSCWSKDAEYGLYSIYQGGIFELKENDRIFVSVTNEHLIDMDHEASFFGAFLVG

B1: clone 47, modified IgG1 / kappa (antibody)
heavy: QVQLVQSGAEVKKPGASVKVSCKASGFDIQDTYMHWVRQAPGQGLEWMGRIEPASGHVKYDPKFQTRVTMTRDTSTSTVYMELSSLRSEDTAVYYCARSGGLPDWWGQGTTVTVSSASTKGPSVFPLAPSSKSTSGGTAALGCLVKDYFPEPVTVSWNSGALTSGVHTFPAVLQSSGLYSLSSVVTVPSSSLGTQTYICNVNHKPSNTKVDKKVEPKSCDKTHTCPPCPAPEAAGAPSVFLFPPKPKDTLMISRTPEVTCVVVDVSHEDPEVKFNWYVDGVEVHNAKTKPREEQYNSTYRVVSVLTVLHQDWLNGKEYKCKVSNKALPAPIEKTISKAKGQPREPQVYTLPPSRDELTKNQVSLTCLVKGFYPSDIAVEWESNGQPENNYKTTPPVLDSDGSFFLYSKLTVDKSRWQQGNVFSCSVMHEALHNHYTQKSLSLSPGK
light: EIVLTQSPGTLSLSPGERATLSCRASSSVSYMYWYQQKPGQAPRLLIYATSNLASGIPDRFSGSGSGTDFTLTISRLEPEDFAVYYCQQWEGNPRTFGGGTKLEIKRTVAAPSVFIFPPSDEQLKSGTASVVCLLNNFYPREAKVQWKVDNALQSGNSQESVTEQDSKDSTYSLSSTLTLSKADYEKHKVYACEVTHQGLSSPVTKSFNRGEC
[1]
  IC50, inhibition of IFN-γ production, human whole blood assay: 1260 pM

B2: clone 23, IgG2 / kappa (antibody)
heavy: QVQLVQSGAEVKKPGASVKVSCKASGFDIQDTYMHWVRQAPGQGLEWMGRIDPASGHLKYDPKFQNRVTMTRDTSTSTVYMELSSLRSEDTAVYYCARSGGLPDKWGQGTTVTVSSASTKGPSVFPLAPCSRSTSESTAALGCLVKDYFPEPVTVSWNSGALTSGVHTFPAVLQSSGLYSLSSVVTVPSSNFGTQTYTCNVDHKPSNTKVDKTVERKCCVECPPCPAPPVAGPSVFLFPPKPKDTLMISRTPEVTCVVVDVSHEDPEVQFNWYVDGVEVHNAKTKPREEQFNSTFRVVSVLTVVHQDWLNGKEYKCKVSNKGLPAPIEKTISKTKGQPREPQVYTLPPSREEMTKNQVSLTCLVKGFYPSDIAVEWESNGQPENNYKTTPPMLDSDGSFFLYSKLTVDKSRWQQGNVFSCSVMHEALHNHYTQKSLSLSPGK
light: EIVLTQSPGTLSLSPGERATLSCRASSSVSYMYWYQQKPGQAPRLLIYATSNLASGIPDRFSGSGSGTDFTLTISRLEPEDFAVYYCQQWEGNPRTFGGGTKLEIKRTVAAPSVFIFPPSDEQLKSGTASVVCLLNNFYPREAKVQWKVDNALQSGNSQESVTEQDSKDSTYSLSSTLTLSKADYEKHKVYACEVTHQGLSSPVTKSFNRGEC
[1]
  IC50, inhibition of IFN-γ production, human whole blood assay: 330 pM

B3: clone 47, IgG2 / kappa (antibody)
heavy: QVQLVQSGAEVKKPGASVKVSCKASGFDIQDTYMHWVRQAPGQGLEWMGRIEPASGHVKYDPKFQTRVTMTRDTSTSTVYMELSSLRSEDTAVYYCARSGGLPDWWGQGTTVTVSSASTKGPSVFPLAPCSRSTSESTAALGCLVKDYFPEPVTVSWNSGALTSGVHTFPAVLQSSGLYSLSSVVTVPSSNFGTQTYTCNVDHKPSNTKVDKTVERKCCVECPPCPAPPVAGPSVFLFPPKPKDTLMISRTPEVTCVVVDVSHEDPEVQFNWYVDGVEVHNAKTKPREEQFNSTFRVVSVLTVVHQDWLNGKEYKCKVSNKGLPAPIEKTISKTKGQPREPQVYTLPPSREEMTKNQVSLTCLVKGFYPSDIAVEWESNGQPENNYKTTPPMLDSDGSFFLYSKLTVDKSRWQQGNVFSCSVMHEALHNHYTQKSLSLSPGK
light: EIVLTQSPGTLSLSPGERATLSCRASSSVSYMYWYQQKPGQAPRLLIYATSNLASGIPDRFSGSGSGTDFTLTISRLEPEDFAVYYCQQWEGNPRTFGGGTKLEIKRTVAAPSVFIFPPSDEQLKSGTASVVCLLNNFYPREAKVQWKVDNALQSGNSQESVTEQDSKDSTYSLSSTLTLSKADYEKHKVYACEVTHQGLSSPVTKSFNRGEC
[1]
  IC50, inhibition of IFN-γ production, human whole blood assay: 1010 pM

B4: clone 34, IgG2 / kappa (antibody)
heavy: QVQLVQSGAEVKKPGASVKVSCKASGFDIQDTYMHWVRQAPGQGLEWMGRIEPASGHIKYDPKFQGRVTMTRDTSTSTVYMELSSLRSEDTAVYYCARSGGLPDWWGQGTTVTVSSASTKGPSVFPLAPCSRSTSESTAALGCLVKDYFPEPVTVSWNSGALTSGVHTFPAVLQSSGLYSLSSVVTVPSSNFGTQTYTCNVDHKPSNTKVDKTVERKCCVECPPCPAPPVAGPSVFLFPPKPKDTLMISRTPEVTCVVVDVSHEDPEVQFNWYVDGVEVHNAKTKPREEQFNSTFRVVSVLTVVHQDWLNGKEYKCKVSNKGLPAPIEKTISKTKGQPREPQVYTLPPSREEMTKNQVSLTCLVKGFYPSDIAVEWESNGQPENNYKTTPPMLDSDGSFFLYSKLTVDKSRWQQGNVFSCSVMHEALHNHYTQKSLSLSPGK
light: EIVLTQSPGTLSLSPGERATLSCRASSSVSYMYWYQQKPGQAPRLLIYATSNLASGIPDRFSGSGSGTDFTLTISRLEPEDFAVYYCQQWEGNPRTFGGGTKLEIKRTVAAPSVFIFPPSDEQLKSGTASVVCLLNNFYPREAKVQWKVDNALQSGNSQESVTEQDSKDSTYSLSSTLTLSKADYEKHKVYACEVTHQGLSSPVTKSFNRGEC
[1]
  IC50, inhibition of IFN-γ production, human whole blood assay: 160 pM

B5: Clone X-V Fab (Fab, V domains shown)
VH: QVQLVQSGAEVKKPGASVKVSCKASGFDIQDTYMHWVRQAPGQGLEWMGRIDPASGHTKYDPKFQVRATITTDTSASTAYLQLSSLRSEDTAVYYCARSGGLPDFWGQGTTVTVSS
VL: EIVLTQSPGTLSLSPGERATLSCRASSSVSYMYWYQQKPGQAPRLLIYATSNLASGIPDRFSGSGSGTDFTLTISRLEPEDFAVYYCQQWSGNPRTFGGGTKLEIK
notes: Fab
[2]
  binding result: no binding
[3]
  binding result: no binding
[4]
  binding result: no binding
[5]
  binding result: binds
[6]
  binding result: binds

B6: Clone XL3-6 Fab (Fab, V domains shown)
VH: QVQLVQSGAEVKKPGASVKVSCKASGFDIQDTYMHWVRQAPGQGLEWMGRIDPASGHTKYDPKFQGRATITTDTSASTAYLQLSSLRSEDTAVYYCARSGGLPDFWGQGTTVTVSS
VL: EIVLTQSPGTLSLSPGERATLSCRASSSVSYMYWYQQKPGQAPRLLIYATSNLASGIPDRFSGSGSGTDFTLTISRLEPEDFAVYYCSQWSGNPRTFGGGTKLEIK
notes: Fab
[2]
  binding result: no binding
[3]
  binding result: no binding
[4]
  binding result: no binding
[5]
  binding result: binds
[6]
  binding result: binds

B7: Clone XL3-10 Fab (Fab, V domains shown)
VH: QVQLVQSGAEVKKPGASVKVSCKASGFDIQDTYMHWVRQAPGQGLEWMGRIDPASGHTKYDPKFQGRATITTDTSASTAYLQLSSLRSEDTAVYYCARSGGLPDFWGQGTTVTVSS
VL: EIVLTQSPGTLSLSPGERATLSCRASSSVSYMYWYQQKPGQAPRLLIYATSNLASGIPDRFSGSGSGTDFTLTISRLEPEDFAVYYCQQWSGNPRSFGGGTKLEIK
notes: Fab
[2]
  binding result: no binding
[3]
  binding result: no binding
[4]
  binding result: no binding
[5]
  binding result: binds
[6]
  binding result: binds

B8: Clone XL3-15 Fab (Fab, V domains shown)
VH: QVQLVQSGAEVKKPGASVKVSCKASGFDIQDTYMHWVRQAPGQGLEWMGRIDPASGHTKYDPKFQGRATITTDTSASTAYLQLSSLRSEDTAVYYCARSGGLPDFWGQGTTVTVSS
VL: EIVLTQSPGTLSLSPGERATLSCRASSSVSYMYWYQQKPGQAPRLLIYATSNLASGIPDRFSGSGSGTDFTLTISRLEPEDFAVYYCQQWSRNPRTFGGGTKLEIK
notes: Fab
[2]
  binding result: no binding
[3]
  binding result: no binding
[4]
  binding result: no binding
[5]
  binding result: binds
[6]
  binding result: binds
